The binders below were run against T1, cyno FcRn/b2M (cyno, UniProt Q8SPV9 24-297; Q8SPW0 21-119, biotinylated) (assay: SPR off-rate; pH 7.4 vs pH 6.0;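 further: surface plasmon resonance with diluted periplasmic extracts flowed over ligand surfaces, 120 s association and 600–3600 s dissociation at 25 °C, running buffer containing 150 mM NaCl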).
T1 construct: bought recombinant biotinylated protein (Immunitrack ITF05 or ACRO FCM-C82W5); also called cFcRn; cFcRn/cb2M
T1 sequence (Q8SPV9 24-297 limits assumed, chain 1 of 2): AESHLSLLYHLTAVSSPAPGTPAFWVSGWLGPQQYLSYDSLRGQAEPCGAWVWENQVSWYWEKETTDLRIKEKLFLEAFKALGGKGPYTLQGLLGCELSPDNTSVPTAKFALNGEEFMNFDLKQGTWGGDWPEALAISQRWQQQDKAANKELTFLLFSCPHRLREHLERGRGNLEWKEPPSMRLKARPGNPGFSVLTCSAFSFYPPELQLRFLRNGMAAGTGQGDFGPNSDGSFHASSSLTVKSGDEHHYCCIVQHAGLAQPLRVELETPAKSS
T1 sequence (Q8SPW0 21-119 limits assumed, chain 2 of 2): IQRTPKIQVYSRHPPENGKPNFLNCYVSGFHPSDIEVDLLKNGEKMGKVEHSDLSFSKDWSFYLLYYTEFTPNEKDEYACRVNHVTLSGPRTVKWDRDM
Protocol: All kinetic measurements have been performed on ProteOn XPR36 (BioRad Laboratories, Inc.), MASS-2 (Sierra sensors, Gmbh) or SPR-32 (Bruker Corporation). […] The phytip purified periplasmic extracts were diluted 1:10 in running buffer (CPA+150 mM NaCl+0.005% Tw20 at pH 5.5, pH 6.0 or pH 7.4) and injected over the ligand surfaces (association: 120 s at 45 μL/min; dissociation: 600s-3600 s at 45 μL/min). Experiments were carried out at 25° C.

Binder	kd ratio pH 7.4/6.0
T0263018B11 A33N (VHH, name in Kabat numbering, FLAG3-His6 tagged) VHH: EVQLVESGGGVVQPGGSLRLSCAASGFTFSSYNMYWVRQAPGKGLEWVSAISSGGGSTDYADSVKGRFTISRDNSKNTLYLQMNSLRPEDTALYYCAADTLYTSLTWYSYWGQGTLVTVSS	49
T0263018B11 D58T (VHH, name in Kabat numbering, FLAG3-His6 tagged) VHH: EVQLVESGGGVVQPGGSLRLSCAASGFTFSSYAMYWVRQAPGKGLEWVSAISSGGGSTTYADSVKGRFTISRDNSKNTLYLQMNSLRPEDTALYYCAADTLYTSLTWYSYWGQGTLVTVSS	10
T0263018B11 L100aV (VHH, name in Kabat numbering, FLAG3-His6 tagged) VHH: EVQLVESGGGVVQPGGSLRLSCAASGFTFSSYAMYWVRQAPGKGLEWVSAISSGGGSTDYADSVKGRFTISRDNSKNTLYLQMNSLRPEDTALYYCAADTLYTSVTWYSYWGQGTLVTVSS	39
T0263018B11 G26K (VHH, name in Kabat numbering, FLAG3-His6 tagged) VHH: EVQLVESGGGVVQPGGSLRLSCAASKFTFSSYAMYWVRQAPGKGLEWVSAISSGGGSTDYADSVKGRFTISRDNSKNTLYLQMNSLRPEDTALYYCAADTLYTSLTWYSYWGQGTLVTVSS	101
T0263018B11 S31G (VHH, name in Kabat numbering, FLAG3-His6 tagged) VHH: EVQLVESGGGVVQPGGSLRLSCAASGFTFSGYAMYWVRQAPGKGLEWVSAISSGGGSTDYADSVKGRFTISRDNSKNTLYLQMNSLRPEDTALYYCAADTLYTSLTWYSYWGQGTLVTVSS	58
T0263018B11 G54D (VHH, name in Kabat numbering, FLAG3-His6 tagged) VHH: EVQLVESGGGVVQPGGSLRLSCAASGFTFSSYAMYWVRQAPGKGLEWVSAISSGDGSTDYADSVKGRFTISRDNSKNTLYLQMNSLRPEDTALYYCAADTLYTSLTWYSYWGQGTLVTVSS	41
T0263018B11 S31A (VHH, name in Kabat numbering, FLAG3-His6 tagged) VHH: EVQLVESGGGVVQPGGSLRLSCAASGFTFSAYAMYWVRQAPGKGLEWVSAISSGGGSTDYADSVKGRFTISRDNSKNTLYLQMNSLRPEDTALYYCAADTLYTSLTWYSYWGQGTLVTVSS	61
T0263018B11 S30P (VHH, name in Kabat numbering, FLAG3-His6 tagged) VHH: EVQLVESGGGVVQPGGSLRLSCAASGFTFPSYAMYWVRQAPGKGLEWVSAISSGGGSTDYADSVKGRFTISRDNSKNTLYLQMNSLRPEDTALYYCAADTLYTSLTWYSYWGQGTLVTVSS	41
T0263018B11 G54V (VHH, name in Kabat numbering, FLAG3-His6 tagged) VHH: EVQLVESGGGVVQPGGSLRLSCAASGFTFSSYAMYWVRQAPGKGLEWVSAISSGVGSTDYADSVKGRFTISRDNSKNTLYLQMNSLRPEDTALYYCAADTLYTSLTWYSYWGQGTLVTVSS	31
T0263018B11 D58S (VHH, name in Kabat numbering, FLAG3-His6 tagged) VHH: EVQLVESGGGVVQPGGSLRLSCAASGFTFSSYAMYWVRQAPGKGLEWVSAISSGGGSTSYADSVKGRFTISRDNSKNTLYLQMNSLRPEDTALYYCAADTLYTSLTWYSYWGQGTLVTVSS	12
T0263018B11 G54T (VHH, name in Kabat numbering, FLAG3-His6 tagged) VHH: EVQLVESGGGVVQPGGSLRLSCAASGFTFSSYAMYWVRQAPGKGLEWVSAISSGTGSTDYADSVKGRFTISRDNSKNTLYLQMNSLRPEDTALYYCAADTLYTSLTWYSYWGQGTLVTVSS	35
T0263018B11 S31V (VHH, name in Kabat numbering, FLAG3-His6 tagged) VHH: EVQLVESGGGVVQPGGSLRLSCAASGFTFSVYAMYWVRQAPGKGLEWVSAISSGGGSTDYADSVKGRFTISRDNSKNTLYLQMNSLRPEDTALYYCAADTLYTSLTWYSYWGQGTLVTVSS	89
T0263018B11 F27M (VHH, name in Kabat numbering, FLAG3-His6 tagged) VHH: EVQLVESGGGVVQPGGSLRLSCAASGMTFSSYAMYWVRQAPGKGLEWVSAISSGGGSTDYADSVKGRFTISRDNSKNTLYLQMNSLRPEDTALYYCAADTLYTSLTWYSYWGQGTLVTVSS	69
T0263018B11 F29Y (VHH, name in Kabat numbering, FLAG3-His6 tagged) VHH: EVQLVESGGGVVQPGGSLRLSCAASGFTYSSYAMYWVRQAPGKGLEWVSAISSGGGSTDYADSVKGRFTISRDNSKNTLYLQMNSLRPEDTALYYCAADTLYTSLTWYSYWGQGTLVTVSS	45
T0263018B11 G26A (VHH, name in Kabat numbering, FLAG3-His6 tagged) VHH: EVQLVESGGGVVQPGGSLRLSCAASAFTFSSYAMYWVRQAPGKGLEWVSAISSGGGSTDYADSVKGRFTISRDNSKNTLYLQMNSLRPEDTALYYCAADTLYTSLTWYSYWGQGTLVTVSS	116

Continued, values first:

kd ratio pH 7.4/6.0	Binder
54	T0263018B11 S56G (VHH, name in Kabat numbering, FLAG3-His6 tagged) VHH: EVQLVESGGGVVQPGGSLRLSCAASGFTFSSYAMYWVRQAPGKGLEWVSAISSGGGGTDYADSVKGRFTISRDNSKNTLYLQMNSLRPEDTALYYCAADTLYTSLTWYSYWGQGTLVTVSS
34	T0263018B11 T57Q (VHH, name in Kabat numbering, FLAG3-His6 tagged) VHH: EVQLVESGGGVVQPGGSLRLSCAASGFTFSSYAMYWVRQAPGKGLEWVSAISSGGGSQDYADSVKGRFTISRDNSKNTLYLQMNSLRPEDTALYYCAADTLYTSLTWYSYWGQGTLVTVSS
85	T0263018B11 T28S (VHH, name in Kabat numbering, FLAG3-His6 tagged) VHH: EVQLVESGGGVVQPGGSLRLSCAASGFSFSSYAMYWVRQAPGKGLEWVSAISSGGGSTDYADSVKGRFTISRDNSKNTLYLQMNSLRPEDTALYYCAADTLYTSLTWYSYWGQGTLVTVSS
64	T0263018B11 T28M (VHH, name in Kabat numbering, FLAG3-His6 tagged) VHH: EVQLVESGGGVVQPGGSLRLSCAASGFMFSSYAMYWVRQAPGKGLEWVSAISSGGGSTDYADSVKGRFTISRDNSKNTLYLQMNSLRPEDTALYYCAADTLYTSLTWYSYWGQGTLVTVSS
41	T0263018B11 T57H (VHH, name in Kabat numbering, FLAG3-His6 tagged) VHH: EVQLVESGGGVVQPGGSLRLSCAASGFTFSSYAMYWVRQAPGKGLEWVSAISSGGGSHDYADSVKGRFTISRDNSKNTLYLQMNSLRPEDTALYYCAADTLYTSLTWYSYWGQGTLVTVSS
54	T0263018B11 T96W (VHH, name in Kabat numbering, FLAG3-His6 tagged) VHH: EVQLVESGGGVVQPGGSLRLSCAASGFTFSSYAMYWVRQAPGKGLEWVSAISSGGGSTDYADSVKGRFTISRDNSKNTLYLQMNSLRPEDTALYYCAADWLYTSLTWYSYWGQGTLVTVSS
62	T0263018B11 S100L (VHH, name in Kabat numbering, FLAG3-His6 tagged) VHH: EVQLVESGGGVVQPGGSLRLSCAASGFTFSSYAMYWVRQAPGKGLEWVSAISSGGGSTDYADSVKGRFTISRDNSKNTLYLQMNSLRPEDTALYYCAADTLYTLLTWYSYWGQGTLVTVSS
40	T0263018B11 T57K (VHH, name in Kabat numbering, FLAG3-His6 tagged) VHH: EVQLVESGGGVVQPGGSLRLSCAASGFTFSSYAMYWVRQAPGKGLEWVSAISSGGGSKDYADSVKGRFTISRDNSKNTLYLQMNSLRPEDTALYYCAADTLYTSLTWYSYWGQGTLVTVSS
36	T0263018B11 T57A (VHH, name in Kabat numbering, FLAG3-His6 tagged) VHH: EVQLVESGGGVVQPGGSLRLSCAASGFTFSSYAMYWVRQAPGKGLEWVSAISSGGGSADYADSVKGRFTISRDNSKNTLYLQMNSLRPEDTALYYCAADTLYTSLTWYSYWGQGTLVTVSS
